Experimental data: US20210338838A1

How the values were obtained:
[1] = target: C3b (complement component 3b) (UniProt P01024); test: cell-based or functional assay
[2] = target: C3b (complement component 3b) (UniProt P01024); test: plate-based binding assay, His-tagged recombinant protein from HEK293 cells
[3] = target: C3b (complement component 3b) (UniProt P01024); test: rank of binding affinity among six proteins, plate-based binding assays
[4] = target: C3b (complement component 3b) (UniProt P01024); test: relative C3b-binding assay, detection antibody AbCam OX-24 (#Ab112197)
[5] = target: C3b (complement component 3b) (UniProt P01024); test: relative C3b-binding assay, percent of CFH-Risk, detection antibody AbCam OX-24 (#Ab112197)

Sequence of protective CFH-I62-Y402-E936 (full-length complement factor H) (P08603 19-1231 V62I): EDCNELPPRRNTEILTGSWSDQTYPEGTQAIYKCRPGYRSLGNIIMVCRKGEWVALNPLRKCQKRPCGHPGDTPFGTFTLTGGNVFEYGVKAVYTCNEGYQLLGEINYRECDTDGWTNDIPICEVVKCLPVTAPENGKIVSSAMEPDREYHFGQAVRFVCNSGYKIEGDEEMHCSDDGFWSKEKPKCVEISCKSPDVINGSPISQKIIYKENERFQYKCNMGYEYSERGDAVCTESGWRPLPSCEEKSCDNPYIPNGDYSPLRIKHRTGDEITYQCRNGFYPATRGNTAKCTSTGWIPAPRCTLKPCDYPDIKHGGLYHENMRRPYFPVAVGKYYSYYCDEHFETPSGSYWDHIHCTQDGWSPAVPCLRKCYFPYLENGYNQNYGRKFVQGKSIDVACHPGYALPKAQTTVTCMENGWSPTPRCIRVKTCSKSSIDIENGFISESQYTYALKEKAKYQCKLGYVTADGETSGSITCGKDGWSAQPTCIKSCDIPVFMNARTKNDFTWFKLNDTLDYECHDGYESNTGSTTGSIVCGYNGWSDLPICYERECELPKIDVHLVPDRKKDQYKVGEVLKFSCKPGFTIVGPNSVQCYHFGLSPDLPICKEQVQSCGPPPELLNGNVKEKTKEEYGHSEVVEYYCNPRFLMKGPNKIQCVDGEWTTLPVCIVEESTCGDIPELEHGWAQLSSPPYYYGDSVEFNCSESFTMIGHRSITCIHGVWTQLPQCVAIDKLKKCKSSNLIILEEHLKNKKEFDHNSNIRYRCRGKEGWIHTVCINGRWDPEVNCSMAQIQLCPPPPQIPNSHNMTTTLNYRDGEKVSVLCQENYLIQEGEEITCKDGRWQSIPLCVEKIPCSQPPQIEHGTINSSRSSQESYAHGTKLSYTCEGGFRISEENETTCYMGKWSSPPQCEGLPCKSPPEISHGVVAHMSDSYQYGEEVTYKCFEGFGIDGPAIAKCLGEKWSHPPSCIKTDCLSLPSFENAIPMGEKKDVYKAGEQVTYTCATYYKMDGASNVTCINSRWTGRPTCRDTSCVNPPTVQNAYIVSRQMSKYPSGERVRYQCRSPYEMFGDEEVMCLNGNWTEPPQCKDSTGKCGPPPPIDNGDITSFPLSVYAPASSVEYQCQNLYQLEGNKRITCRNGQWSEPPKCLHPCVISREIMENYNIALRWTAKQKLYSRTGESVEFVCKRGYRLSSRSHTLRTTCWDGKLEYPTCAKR
Sequence of protective CFHT-I62-Y402 (truncated complement factor H ending in SFTL) (P08603 other isoform, or with tags, fused parts or gaps): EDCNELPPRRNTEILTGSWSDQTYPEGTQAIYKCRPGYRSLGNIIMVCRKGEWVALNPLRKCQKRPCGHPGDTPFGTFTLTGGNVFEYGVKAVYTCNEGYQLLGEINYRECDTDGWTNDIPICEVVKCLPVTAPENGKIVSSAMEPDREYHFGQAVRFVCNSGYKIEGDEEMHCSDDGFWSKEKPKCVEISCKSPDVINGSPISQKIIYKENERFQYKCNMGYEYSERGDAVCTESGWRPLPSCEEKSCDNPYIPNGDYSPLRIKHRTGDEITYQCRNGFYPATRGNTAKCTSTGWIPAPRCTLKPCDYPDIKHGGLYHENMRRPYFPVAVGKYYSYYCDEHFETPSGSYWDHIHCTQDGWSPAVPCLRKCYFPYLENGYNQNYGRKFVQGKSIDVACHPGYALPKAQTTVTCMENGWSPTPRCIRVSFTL
Sequence of CFH-Del (CFH of the CFHR3/1 deletion haplotype, V62-Y402-E936) (P08603 19-1231, stated change not applied): as the sequence (P08603 19-1231 V62I) above, with I44V counted along it
Sequence of CFHT-Neu/Del (truncated CFH of the neutral and deletion haplotypes, V62-Y402) (P08603 other isoform, or with tags, fused parts or gaps): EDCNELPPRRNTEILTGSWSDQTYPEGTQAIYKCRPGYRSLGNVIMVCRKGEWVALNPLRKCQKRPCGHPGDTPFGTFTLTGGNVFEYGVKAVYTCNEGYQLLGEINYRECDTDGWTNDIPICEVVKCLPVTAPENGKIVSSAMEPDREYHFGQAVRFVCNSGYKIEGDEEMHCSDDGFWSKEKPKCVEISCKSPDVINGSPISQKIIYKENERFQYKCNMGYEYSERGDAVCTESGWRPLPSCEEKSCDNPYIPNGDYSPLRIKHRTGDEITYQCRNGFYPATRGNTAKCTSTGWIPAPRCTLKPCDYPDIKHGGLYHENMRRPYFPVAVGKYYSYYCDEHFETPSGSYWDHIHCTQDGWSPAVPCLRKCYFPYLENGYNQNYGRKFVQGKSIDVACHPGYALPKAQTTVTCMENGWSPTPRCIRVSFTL

Cofactor (IC50 value for iC3b 43-kDa band appearance) [1] [nM] | Kd [2] [nM] | Binding Affinity Rank (1 best to 6 worst) [3] [rank] | Binding Potential [4] | % FH-Risk [5] [%] | Substance
89.7 | 938 | 6 |  |  | eCFHT-SE (engineered truncated CFH, I62-Y402, ending in SESFTL) (from UniProt P08603 19-445)
 |  |  | 24 | 107 | CFH-Del (CFH of the CFHR3/1 deletion haplotype, V62-Y402-E936) (from UniProt P08603 19-1231)
 |  |  | 3 | 15 | CFHT-Neu/Del (truncated CFH of the neutral and deletion haplotypes, V62-Y402) (from UniProt P08603 19-445)
37 | 478 | 3 |  |  | eCFHT-SK (engineered truncated CFH, I62-Y402, ending in SKSFTL) (from UniProt P08603 19-445)
31.2 | 717 | 4 | 4 | 17 | protective CFHT-I62-Y402 (truncated complement factor H ending in SFTL) (from UniProt P08603 19-445)

Further lines, the substance ahead of its results:

Substance | Cofactor (IC50 value for iC3b 43-kDa band appearance) [1] [nM] | Kd [2] [nM] | Binding Affinity Rank (1 best to 6 worst) [3] [rank] | Binding Potential [4] | % FH-Risk [5] [%]
CFHT-V62-H402 (risk variant of truncated CFH) (from UniProt P08603 19-445) |  |  | 5 | 2 | 10
CFH-Neu (neutral variant of full-length CFH, V62-Y402-D936) (from UniProt P08603 19-1231) |  |  |  | 29 | 134
protective CFH-I62-Y402-E936 (full-length complement factor H) (from UniProt P08603 19-1231) | 9.2 | 141 | 1 | 29 | 133
CFH-V62-H402-E936 (risk variant of full-length CFH) (from UniProt P08603 19-1231) |  |  | 2 | 22 | 100
